Results as given in patent publication US8048659.

Legend:
[1] = biological target: T1, H-Cys(Npys)-Trp-Lys-Lys-Lys-Pro-Ala-Pro-Phe-Ala-Ala-Ala-LC-PEGA resin
T1 chain: CWKKKPAPFAAA

[2] = biological target: T2, EuMac-Peptide-PEGA beads (Formula XII)
T2 chain: CWKKKPAPFAAA

B1: Proteinase K Molecular Biology, SIGMA Catalog No. P-4850 (protein)
chain: AAQTNAPWGLARISSTSPGTSTYYYDESAGQGSCVYVIDTGIEASHPEFEGRAQMVKTYYYSSRDGNGHGTHCAGTVGSRTYGVAKKTQLFGVKVLDDNGSGQYSTIIAGMDFVASDKNNRNCPKGVVASLSLGGGYSSSVNSAAARLQSSGVMVAVAAGNNNADARNYSPASEPSVCTVGASDRYDRRSSFSNYGSVLDIFGPGTSILSTWIGGSTRSISGTSMATPHVAGLAAYLMTLGKTTAASACRYIADTANKGDLSNIPFGTVNLLAYNNYQA
**Q.** How did the “absorbance of supernatant (275 nm and 350 nm peaks) after hydrolysis at pH 7.1, 15.1 ug/mL Proteinase K” value [1] turn out when B1 was run?
**A.** Its value is “the release of the free peptide was much greater for the Proteinase K sample”.

**Q.** What about the “absorbance of supernatant with time after hydrolysis at pH 8.01, 14.2 and 28.4 ug/mL Proteinase K” value [1] of the same protein?
**A.** The value was “demonstrate that Proteinase K cleaves a peptide from the Peptide-PEGA-Beads”.

**Q.** And the “ratio of cleaved peptide, 28.4 vs. 14.2 ug/mL Proteinase K (absorbance at 280 nm)” value [1]?
**A.** Its value is “The doubling, of the enzyme concentration resulted in an approximately 1.3 fold increase in cleaved peptide”.

**Q.** And the “absorbance of supernatant at 280 nm after hydrolysis at pH 8.0, 25.5 ug/mL Proteinase K” value [2]?
**A.** Its value is “the Proteinase K did release a cleavage product containing tryptophan from the EuMac-Peptide-PEGA-Beads”.

**Q.** What about the “luminescence of beads before and after 115 min of Proteinase K hydrolysis” value [2] of the same protein?
**A.** Its value is “The drastic difference in luminescence before and after Proteinase K hydrolysis demonstrated that the EuMac-labeled part of the peptide was released from the bead”.
